Test results published in PMC9592559 (Structure(London, England:1993), 2022).

Target: the molecule itself
Test: SEC; analytical gel filtration of TOP2B (45–444) in the presence and absence of AMPPNP

B1: human TOP2B ATPase domain (45–444) (domain or fragment, UniProt Q02880-2 45-444, looked up)
chain: SVERVYQKKTQLEHILLRPDTYIGSVEPLTQFMWVYDEDVGMNCREVTFVPGLYKIFDEILVNAADNKQRDKNMTCIKVSIDPESNIISIWNNGKGIPVVEHKVEKVYVPALIFGQLLTSSNYDDDEKKVTGGRNGYGAKLCNIFSTKFTVETACKEYKHSFKQTWMNNMMKTSEAKIKHFDGEDYTCITFQPDLSKFKMEKLDKDIVALMTRRAYDLAGSCRGVKVMFNGKKLPVNGFRSYVDLYVKDKLDETGVALKVIHELANERWDVCLTLSEKGFQQISFVNSIATTKGGRHVDYVVDQVVGKLIEVVKKKNKAGVSVKPFQVKNHIWVFINCLIENPTFDSQTKENMTLQPKSFGSKCQLSEKFFKAASNCGIVESILNWVKFKAQTQLNKKCS
notes: Cloned by LIC into the pET His6 MBP Asn10 TEV LIC vector (1C), Addgene plasmid 29654; The models hold residues 46–429 (7QFO), 47–422 (7QFN) and 45–422 (7ZBG); not shown: His6, N-terminal, cleaved; MBP, N-terminal, cleaved
- stoichiometry N: 2
